Results as given in patent US20240239886A1 (YEDA RESEARCH AND DEVELOPMENT, published 2024).
Like-named read-outs stand apart in the source and are kept apart here.

Experiments:
soluble TREM2 protein = target: T1, soluble TREM2 protein (human, UniProt Q9NZC2 19-157); test: sup ELISA, hTREM2 vs WT 293HEK supernatant
T1 construct: also called TREM2 in cell culture supernatant (Sup)
T1 sequence: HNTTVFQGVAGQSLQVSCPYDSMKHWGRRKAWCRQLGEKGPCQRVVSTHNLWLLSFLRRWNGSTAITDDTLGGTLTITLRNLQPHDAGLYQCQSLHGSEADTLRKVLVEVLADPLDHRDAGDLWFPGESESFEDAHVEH
Method: Supernatant was collected, centrifuged for 5 min at 900 g and filtered (0.45 μm). Ninety six-well ELISA microplate was coated with 0.2 μg/well of anti human TREM2 Antibody (AF1828, R&D) diluted in PBS, and incubated at 4° C. overnight. The plate was rinsed three times with 0.05% tween20 in PBS, blocked with 1% BSA in PBS at room temperature (RT) for 1 hr, and rinsed again. The plates was incubated with the cell culture supernatant (100 μl/well) for 2 hrs at RT for and rinsed again. The plate was incubated with 0.1 μg biotinylayed anti hTREM2 antibodies for 2 hrs at RT. After incubation, the plate was rinsed and incubated with streptavidin-HRP (DY998, R&D) for 20 min at RT. The plate was rinsed and incubated with TMB Reagent (TM4500, Scytek) for 20 min at RT, followed by the addition of Stop Solution 2N Sulfuric Acid (DY994, R&D). OD was measured using an ELISA plate reader at dual wavelengths (450 nm and 570 nm)
(§1) A. Cells culture supernatant (Sup) was used for soluble TREM2 protein binding capability test of 18 hybridoma derived monoclonal antibodies by direct ELISA. B. Cells were captured in 96 wells plate and were used for cell based ELISA of 18 hybridoma derived monoclonal antibodies. OD values positive cells (hTREM2 expressing HEK293) and negative cells (WT HEK293) are showing in the table.

[1] = target: T2, recombinant protein consisting of the extracellular domain of human TREM2 fused to the His tag (human, UniProt Q9NZC2 19-174); test: direct ELISA
T2 construct: also called His tagged hTREM2; His-TREM2
T2 sequence: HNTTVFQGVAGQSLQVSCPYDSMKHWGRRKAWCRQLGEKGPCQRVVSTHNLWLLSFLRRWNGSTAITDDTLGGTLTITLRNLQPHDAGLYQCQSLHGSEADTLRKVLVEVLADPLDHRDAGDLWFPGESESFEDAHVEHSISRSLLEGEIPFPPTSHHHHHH
Method: (§2) Ninety six-Well ELISA microplate was coated with 0.5 μg/mL, 100 μl/well His tagged hTREM2 diluted in PBS pH 7.4, and incubated at 4° C. overnight. The plate was rinsed three times with 0.05% tween20 in PBS, blocked with 1% BSA in PBS at room temperature (RT) for 1 hr, and rinsed again. The plates was incubated with the anti hTREM2 antibodies (100 μl/well) for 2 hrs at indicated concentration, at RT. Plate was rinsed and incubated with Peroxidase-AffiniPure Goat anti Mouse IgG, Fcg fragment specific (min X Hu, Bov, Hrs, Sr Prot; Jackson ImmunoResearch) for 20 min at RT. The plate was rinsed and incubated with TMB Reagent (TM4500, Scytek) for 20 min at RT, followed by the addition of Stop Solution 2N Sulfuric Acid (DY994, R&D). OD was measured using an ELISA plate reader at dual wavelengths (450 nm and 570 nm)

[2] = target: T3, recombinant protein consisting of the extracellular domain of human TREM2 fused to the His tag (UniProt Q9NZC2 19-174); test: SPR
T3 chain: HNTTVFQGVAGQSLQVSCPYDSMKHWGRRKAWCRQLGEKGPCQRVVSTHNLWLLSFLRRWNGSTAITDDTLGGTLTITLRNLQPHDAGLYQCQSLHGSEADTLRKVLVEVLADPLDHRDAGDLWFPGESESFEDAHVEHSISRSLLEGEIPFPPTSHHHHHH

[3] = target: T2, recombinant protein consisting of the …; test: direct ELISA; highest dilution with S/B >= 2.1
Method: as §2
(§3) Purity is measured by SDS-PAGE. Quantity of endotoxin (EU/mg) is measured by LAL assay. Titer measured by direct ELISA, while the title value is the highest dilution with S/B (Signal/Blank) >= 2.1

[4] = target: T2, recombinant protein consisting of the …; test: direct ELISA, coated His-TREM2 0.5 ug/mL, Ab stock 1 mg/mL
Method: as §2

[5] = target: T4, human TREM2 (hTREM2) on cells (human, UniProt Q9NZC2 19-230); test: cell-based ELISA, hTREM2 vs WT 293HEK cells
T4 construct: also called hTREM2 expressing HEK293
T4 sequence: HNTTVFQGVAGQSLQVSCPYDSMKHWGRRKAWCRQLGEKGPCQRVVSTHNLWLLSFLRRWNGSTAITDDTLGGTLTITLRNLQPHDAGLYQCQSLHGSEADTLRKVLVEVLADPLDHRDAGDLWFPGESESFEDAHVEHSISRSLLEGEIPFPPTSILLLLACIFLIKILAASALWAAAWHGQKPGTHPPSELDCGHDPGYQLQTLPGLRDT
Method: Cells were washed three times with PBS and blocked (5% FBS, 1% BSA in PBS) for 2 hrs at RT. Cells were washed with 1% BSA in PBS and were incubated with 0.1 ug (or indicated amount) obiotinylayed anti hTREM2 antibodies for 4 hrs at RT. After incubation, cells were incubated with streptavidin-HRP (DY998, R&D) for 20 min at RT. The cells were washed and incubated with TMB Reagent (TM4500, Scytek) for 30 min at RT, followed by the addition of Stop Solution 2N Sulfuric Acid (DY994, R&D). OD was measured using an ELISA plate reader at dual wavelengths (450 nm and 570 nm). Biotinylation of Antibodies was done using EZ-Link™ Sulfo-NHS-LC-Biotinylation kit (Thermo Fisher Scientific) according to manufacturer's instructions.
as §1

[6] = target: T2, recombinant protein consisting of the …; test: direct ELISA; highest dilution with S/B >= 2.1; remark: listed apart in the source
Method: as §2, §3

[7] = target: T4, human TREM2 (hTREM2) on cells; test: flow cytometry on BMDM
Method: TREM2 KO and hTREM2 BMDM were washed with MACS buffer (PBS pH 7.2, 0.5% BSA and 2 mM EDTA) and stained with biotin conjugated anti hTREM2 antibodies (10 μg/mL) followed by Washing with MACS buffer and APC-streptavidin (Biolegend, 405207) incubation, then analyzed by flow cytometer (LSRII, BD).

B1: 83E10B12 (antibody, V domains shown)
VH: QVQLQESGPELVKPGASVKISCKASGYIFSYSWMNWVKQRPGKGLEWIGRIYPGDGDADYNGKFKGKATLTADKSSNTAYMQLTSLTSEDSAVYFCARLHIYDGYYVSVYWGQGTLVTVSA
VL: DIQMTQTTSCLSASLGDRVTISCRASQDINNYLSWYQQKPDGTVKLLIYYTSKLHSGVPSRFSGSGSGTDYSLTIGNLEQEDVATYFCQQGDTLPWTFGGGTRLEIK
notes: Biotin conjugated in sup ELISA, cell-based ELISA and flow cytometry
sup ELISA positive/negative (293HEK) (soluble TREM2 protein): 27.9 ratio | direct ELISA positive/negative [1]: 34.8 ratio | Kd [2]: 32.1 pM | Titer [3]: 243000 dilution | OD at dilution 1000 [4]: 2.59 OD | OD at dilution 3000 [4]: 2.49 OD | OD at dilution 9000 [4]: 1.98 OD | OD at dilution 27000 [4]: 0.843 OD | OD at dilution 81000 [4]: 0.375 OD | OD at dilution 243000 [4]: 0.179 OD | OD at dilution 729000 [4]: 0.099 OD | OD at dilution 2187000 [4]: 0.068 OD | OD at dilution 6561000 [4]: 0.07 OD | OD at dilution 19683000 [4]: 0.053 OD | Cell based ELISA positive/negative [5]: 1.91 ratio | Titer [6]: 243000 dilution | FACS positive/negative BMDM [7]: 2.58 ratio

B2: 80E3C7 (antibody, V domains shown)
VH: QVQLQQPGAEPLKPGASVKMSCEASGYTFTNFWITWMKLRPGQGLEWIGDIYPGTGNTNYNEKFKSRATLTVDTSSTTAYMQLSSLTSEDSAVYYCAREAYYTNPGFAYWGHGTLVTVSA
VL: DVLMTQSPLSLPVNLGDQASISCKSSQNIVHSNGNTYLEWYLQRPGQSPKLLIYKVSNRFSGVPDRFSGSGSGTDFTLKISRVEAEDLGVYYCFQGSHVPYTFGGGTKLEIK
notes: Biotin conjugated in sup ELISA, cell-based ELISA and flow cytometry; also called anti-TREM2 antibody (E3C7); TREM2 Ab E3C7
sup ELISA positive/negative (293HEK) (soluble TREM2 protein): 24.9 ratio | direct ELISA positive/negative [1]: 33.4 ratio | Kd [2]: 0.0275 pM | Titer [3]: 2.19e+06 dilution | OD at dilution 1000 [4]: 2.02 OD | OD at dilution 3000 [4]: 2.12 OD | OD at dilution 9000 [4]: 2.16 OD | OD at dilution 27000 [4]: 1.76 OD | OD at dilution 81000 [4]: 1.2 OD | OD at dilution 243000 [4]: 0.608 OD | OD at dilution 729000 [4]: 0.281 OD | OD at dilution 2187000 [4]: 0.145 OD | OD at dilution 6561000 [4]: 0.092 OD | OD at dilution 19683000 [4]: 0.085 OD | Cell based ELISA positive/negative [5]: 2.8 ratio | Titer [6]: 2.19e+06 dilution | FACS positive/negative BMDM [7]: 1.87 ratio

B3: 54H2C1 (antibody, V domains shown)
VH: QVQLQQPGAEPLTPGASVKMSCEASGYTFTNFWITWVKLRPGQGLEWIGDIYPGSGNTNYNEKFKSRATLTVDTSSTTAYMQLSSLTSEDSAVYYCAREAYYTNPGFAYWGHGTLVTVSA
VL: DVLMTQSPLSLPVNLGDQASISCKSSQNIVHSNGNTYLEWYLQRPGQSPKLLIYKVSNRFSGVPDRFSGSGSGTDFTLKISRVEAEDLGLYYCFQGSHVPYTFGGGTKLEIK
notes: as for B1
sup ELISA positive/negative (293HEK) (soluble TREM2 protein): 25.1 ratio | direct ELISA positive/negative [1]: 33.9 ratio | Kd [2]: 399 pM | Titer [3]: 729000 dilution | OD at dilution 1000 [4]: 1.4 OD | OD at dilution 3000 [4]: 1.35 OD | OD at dilution 9000 [4]: 1.18 OD | OD at dilution 27000 [4]: 0.967 OD | OD at dilution 81000 [4]: 0.586 OD | OD at dilution 243000 [4]: 0.276 OD | OD at dilution 729000 [4]: 0.147 OD | OD at dilution 2187000 [4]: 0.106 OD | OD at dilution 6561000 [4]: 0.087 OD | OD at dilution 19683000 [4]: 0.069 OD | Cell based ELISA positive/negative [5]: 2.69 ratio | Titer [6]: 729000 dilution | FACS positive/negative BMDM [7]: 2.72 ratio
